Experimental data from patent US20090297524A1 (DOMANTIS, published 2009).
Substitutions are numbered along the chain they refer to.

T1: Recombinant human CD40L (human, UniProt P29965 108-261, limits assumed)
T1 construct: also called CD40 ligand
T1 sequence (looked up): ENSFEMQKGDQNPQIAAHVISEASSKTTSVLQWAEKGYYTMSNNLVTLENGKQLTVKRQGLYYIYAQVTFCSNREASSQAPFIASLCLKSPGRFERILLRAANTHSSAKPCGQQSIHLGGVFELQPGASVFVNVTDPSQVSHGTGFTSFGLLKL

B1: DOM.176 (other)
VH: EVQLLESGGGLVQPGGSLRLSCAASGFTFDAYEMGWVRQAPGKGLEWVSIIDWDGNSTYYADSVKGRFTISRDNSKNTLYLQMNSLRAEDTAVYYCAKPGDNVGIFDYWGQGTLVTVSS
notes: VH dAb
B2: DOM.183 (other)
VH: EVQLLESGGGLVQPGGSLRLSCAASGFTFADYGMGWVRQAPGKGLEWVSSIQSSGLRTYYADSVKGRFTISRDNSKNTLYLQMNSLRAEDTAVYYCAKRANSRRGFDYWGQGTLVTVSS
notes: VH dAb
B3: DOM-16 (other)
VH: EVQLLESGGGLVQPGGSLRLSCAASGFTFMEYAMIWVRQAPGKGLEWVSIISPLGLSTYYADSVKGRFTISRDNSKNTLYLQMNSLRAEDTAVYYCAKYQDSSDSQYTNFDYWGQGTLVTVSS
notes: VH dAb
B4: DOM.182 (other)
VH: EVQLLESGGGLVQPGGSLRLSCAASGFTFDEYPMYWVRQAPGKGLEWVSSIGPSGPNTYYADSVKGRFTISRDNSKNTLYLQMNSLRAEDTAVYYCAKSPYFDVIPSYFDYWGQGTLVTVSS
notes: VH dAb
B5: DOM.201 (other)
VH: EVQLLESGGGLVQPGGSLRLSCAASGFTFGNYSMGWVRQAPGKGLEWVSSIGRHGGRTYYADSVKGRFTISRDNSKNTLYLQMNSLRAEDTAVYYCAKKGSTYPRFDYWGQGTLVTVSS
notes: VH dAb
B6: DOM.141 (other)
VL: DIQMTQSPSSLSASVGDRVTITCRASQWIGDTLTWYQQKLGKAPKLLIYGGSELQSGVPPRFSGSGSGTDFTLTISSLQPEDFATYYCQQCISSPCTFGQGTKVEIKR
notes: Vk dAb
B7: DOM.197 (other)
VH: EVQLLESGGGLVQPGGSLRLSCAASGFTFAKYKMWWVRQAPGKGLEWVSSITPKGHSTYYADSVKGRFTISRDNSKNTLYLQMNSLRAEDTAVYYCAKRPMTPFDYWGQGTLVTVSS
notes: VH dAb
B8: DOM.195 (other)
VH: EVQLLESGGGLVQPGGSLRLSCAASGFTFGTYDMGWVRQAPGKGLEWVSRINWQGDRTYYADSVKGRFTISRDNSKNTLYLQMNSLRAEDTAVYYCAKAGFGHYVDGLGFDYWGQGTLVTVSS
notes: VH dAb
B9: DOM.209 (other)
VH: EVQLLESGGGLVQPGGSLRLSCAASGFTFADYEMWWVRQAPGKGLEWVSAISRQGFATYYADSVKGRFTISRDNSKNTLYLQMNSLRAEDTAVYYCAKDLERDDFDYWGQGTLVTVSS
notes: VH dAb
B10: DOM.189 (other)
VH: EVQLLESGGGLVQPGGSLRLSCAASGFTFQMYPMGWVRQAPGKGLEWVSMIEPAGDLTYYADSVKGRFTISRDNSKNTLYLQMNSLRAEDTAVYYCAKYQEQPWFDYWGQGTLVTVSS
notes: VH dAb
B11: DOM.203 (other)
VH: EVQLLESGGGLVQPGGSLRLSCAASGFTFSNYTMGWVRQAPGKGLEWVSSIRPDGKITYYADSVKGRFTISRDNSKNTLYLQMNSLRAEDTAVYYCAEVYSSCAMCTPLLFDYWGQGTLVTVSS
notes: VH dAb
B12: DOM.202 (other)
VH: EVQLLESGGGLVQPGGSLRLSCTASGFTFSHYEMGWVRQAPGKGLEWVSSIEPFGGGTYYADSVKGRFTISRDNSKNTLYLQMNSLRAEDTAVYYCAKVYPQGSFDYWGQGTLVTVSS
notes: VH dAb
B13: DOM.146 (other)
VL: DIRMTQSPSSLSASVGDRVTITCRASQWIGDSLAWYQQKPGKAPKLLIYGISELQSGVPSRFSGSGSGTDFTLTISSLQPEDSATYYCQLSSSMPHTFGQGTKVEIKR
notes: Vk dAb
B14: DOM.188 (other)
VH: EVQLLESGGGLVQPGGSLRLSCAASGFTFTRYRMSWVRQAPGKGLEWVSGISRDGYRTYYADSVKGRFTISRDNSKNTLYLQMNSLRAEDTAVYYCAKGMTASFDYWGQGTLVTVSS
notes: VH dAb
B15: DOM.192 (other)
VH: B14 VH with T30S, R33P, G50S, S52N, D54S, Y56M, K98E, M100H, T101Q, S103P
notes: VH dAb
B16: DOM.187 (other)
VH: EVQLLESGGGLVQPGGSLRLSCAASGFTFSSYSMVWVRQAPGKGLEWVSGINRGGTRTYYADSVKGRFTISRDNSKNTLYLQMNSLRAEDTAVYYCAKGWRRGFDYWGQGTLVTVSS
notes: VH dAb
B17: DOM.139 (other)
VH: EVQLLESGGGLVQPGGSLRLSCAASGFTFSNYEMGWVRQAPGKGLEWVSVISEVGSLTYYADSVKGRFTISRDNSKNTLYLQMNSLRAEDTAVYYCAKPHDSSIGFDYWGQGTLVTVSS
notes: VH dAb
B18: DOM.200 (other)
VH: EVQLLESGGGLVQPGGSLRLSCAASGFTFTNYSMGWVRQAPGKGLEWVSTIRPNGTKTYYADSVKGRFTISRDNSKNTLYLQMNSLRAEDTAVYYCAKRSSAHLQRFDYWGQGTLVTVSS
notes: VH dAb
B19: DOM.199 (other)
VH: EVQLLESGGGLVQPGGSLRLSCAASGFTFERYGMTWVRQAPGKGLEWVSSIWPRGQKTYYADSVKGRFTISRDNSKNTLYLQMNSLRAEDTAVYYCAKGNSRYVFDYWGQGTLVTVSS
notes: VH dAb
B20: DOM.181 (other)
VH: EVQLLESGGGLVQPGGSLRLSCAASGFTFAFYPMMWVRQAPGKGLEWVSWIDATGTRTYYADSVKGRFTISRDNSKNTLYLQMNSLRAEDTAVYYCAEGNYGSSYTMGVFDYWGQGTLVTVSS
notes: VH dAb
B21: DOM.198 (other)
VH: EVQLLESGGGLVQPGGSLRLSCAASGFTFERYNMSWVRQAPGKGLEWVSSIRPRGGKTYYADSVKGRFTISRDNSKNTLYLQMNSLRAEDTAVYYCAKWRREGYTGSKFDYWGQGTLVTVSS
notes: VH dAb
B22: DOM.191 (other)
VH: EVQLLESGGGLVQPGGSLRLSCAASGFTFKLYPMTWVRQAPGKGLEWVSSIDAGGHETYYADSVKGRFTISRDNSKNTLYLQMNSLRAEDTAVYYCAKDWWDYLFDYWGQGTLVTVSS
notes: VH dAb
B23: DOM.204 (other)
VH: EVQLLESGGGLVQPGGSLRLSCAASGFTFKRYSMAWVRQAPGKGLEWVSDIGPRGFSTYYADSVKGRFTISRDNSKNTLYLQMNSLRAEDTAVYYCAKVGRGQRDTSQPFDYWGQGTLVTVSS
notes: VH dAb
B24: DOM.145 (other)
VL: DIQMTQSPSSLSASVGDRVTITCRASQTIYTSLSWYQQKPGKAPKLLIHYGSVLQSGVPSRFSGSGSGTDFTLTISSLQPEDSATYYCQQVHQAPTTFGQGTKVEIKR
notes: Vk dAb
B25: DOM-12 (other)
VH: EVQLLESGGGLVQPGGSLRLSCAASGFTFRLYEMAWVRQAPGKGLEWVSGIDILGSRTYYADSVKGRFTISRDNSKNTLYLQMNSLRAEDTAVYYCAKDLSWQGFDYWGQGTLVTVSS
notes: VH dAb
B26: DOM-13 (other)
VH: EVQLLESGGGLVQPGGSLRLSCAASGFTFSYYSMYWVRQAPGKGLEWVSSISPFGWGTYYADSVKGRFTISRDNSKDTLYLQMNSLRAEDTAVYYCAKYGETSGPISENFDYWGQGTLVTVSS
notes: VH dAb
B27: DOM-17 (other)
VH: EVQLLESGGGLVQPGGSLRLSCAASGFTFEDYGMGWARQAPGKGLEWVSSIGPLGLWTYYADSAKGRFTISRDNSKNTLYLQMNSLRAEDTAVYYCAKSPLEGLITNFDYWGQGTLVTVSS
notes: VH dAb
B28: DOM.177 (other)
VH: EVQLLESGGGLVQPGGSLRLSCAASGFTFSNYYMVWVRQAPGKGLEWVSAIDEWGFATYYADSVKGRFTISRDNSKNTLYLQMNSLRAEDTAVYYCAKHWEFTSDTSRFDYWGQGTLVTVSS
notes: VH dAb
B29: DOM.207 (other)
VH: EVQLLESGGGLVQPGGSLRLSCAASGFTFDKYLMSWVRQAPGKGLEWVSGIEPLGDVTYYADSVKGRFTISRDNSKNTLYLQMNSLRAEDTAVYYCAKEASGDFDYWGQGTLVTVSS
notes: VH dAb
B30: DOM.194 (other)
VH: EVQLLESGGGLVQPGGSLRLSCAASGFTFKQYDMRWVRQAPGKGLEWVSTISQNGTKTYYADSVKGRFTISRDNSKNTLYLQMNSLRAEDTAVYYCAKSRTGRYFDYWGQGTLVTVSS
notes: VH dAb
B31: DOM.185 (other)
VH: EVQLLESGGGLVQPGGSLRLSCAASGFTFAHYPMSWVRQAPGKGLEWVSSIGRLGNRTYYADSVKGRFTISRDNSKNTLYLQMNSLRAEDTAVYYCAKRATPVPIKGLFDYWGQGTLVTVSS
notes: VH dAb
B32: DOM-18 (other)
VH: EVQLLESGGGLVQPGGSLRLSCAASGFTFPEYDMTWVRQAPGKGLEWVSYISSDGYSTYYADSVKGRFTISRDNSKNTLYLQMNSLRAEDTAVYYCAKPHGSPREFDYWGQGTLVTVSS
notes: VH dAb
B33: DOM.149 (other)
VL: DIQMTQSPSSLSASVGDRVTITCRASQWIGRQLVWYQQKPGKAPKLLIYGATELQSGVPSRFSGSGSGTDFTLTISSLQPEDFATYYCQQQSKGPLTFGHGTKVEIKR
notes: Vk dAb

Target: T1, Recombinant human CD40L
Assay: CD40L/CD40-Fc receptor binding assay;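 further: plate assay with coated human CD40-Fc, bound ligand detected via HRP anti-biotin antibody and TMB, OD at 450 nm, lower signal indicates stronger inhibition by dAb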
Method: A 96 well Nunc Maxisorp assay plate was coated overnight at 4° C. with 100 μl per well of recombinant human CD40/Fc (R&D Systems) at 0.5 μg/ml in carbonate buffer. The plate was washed 3 times with 300 μl of 0.05% Tween/PBS and 3 times with 300 μl of PBS using a Tecan plate washer. The wells were blocked using 200 μl of PBS containing 2% (w/v) BSA and incubated for a minimum of 1 h at room temperature. The wells were washed as above, then 50 μl of purified dAb protein (or unpurified supernatant containing dAb from a micro-culture expression) was added to each well.
The plate was washed as described above, then 100 μl HRP conjugated anti-biotin antibody (1:5000 dilution in diluent) added to each well and the plate incubated for 1 hr at room temperature. The plate was washed again as described above using a Tecan plate washer and the assay developed using 100 μl of SureBlue 1-Component TMB MicroWell Peroxidase solution (the plate was left at room temperature for up to 20 min). The reaction was stopped by the addition of 100 μl M hydrochloric acid. The OD₄₅₀ₙₘ of the plate was assayed within 30 minutes of acid addition. The OD₄₅₀ₙₘ is proportional to the amount of bound streptavidin-HRP conjugate, therefore the greater the degree of dAb inhibition the lower the OD₄₅₀ₙₘ of the resulting signal.

| binding result | Binder |
| --- | --- |
| binds | B1 |
| binds | B2 |
| binds | B3 |
| binds | B4 |
| binds | B5 |
| binds | B6 |
| binds | B7 |
| binds | B8 |
| binds | B9 |
| binds | B10 |
| binds | B11 |
| binds | B12 |
| binds | B13 |
| binds | B14 |
| binds | B15 |
| binds | B16 |
| binds | B17 |

| binding result | Binder |
| --- | --- |
| binds | B18 |
| binds | B19 |
| binds | B20 |
| binds | B21 |
| binds | B22 |
| binds | B23 |
| binds | B24 |
| binds | B25 |
| binds | B26 |
| binds | B27 |
| binds | B28 |
| binds | B29 |
| binds | B30 |
| binds | B31 |
| binds | B32 |
| binds | B33 |
